Data as given in publication PMC9482650, “Quantitative fragmentomics allow affinity mapping of interactomes” (Nature Communications, 2022).

Legend:
Assay in all cases: holdup assay
Set-up in all cases: key: below the threshold = too weak to quantify, mostly under pKd 3.1 to 4
Settings in all cases: plain residues with an end cap or a label only (N-terminal biotin on a linker: ado-ado)
PARD3B_1, Q8TEW8 = target: T1, PARD3B_1, Q8TEW8
T1 sequence (Q8TEW8 196-299, limits assumed, looked up): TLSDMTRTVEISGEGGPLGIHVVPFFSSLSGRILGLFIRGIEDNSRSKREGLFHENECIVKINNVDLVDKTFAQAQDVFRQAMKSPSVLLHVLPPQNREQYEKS

LRRC7, Q96NW7 = target: T2, LRRC7, Q96NW7
T2 sequence (Q96NW7 1440-1537, limits assumed, looked up): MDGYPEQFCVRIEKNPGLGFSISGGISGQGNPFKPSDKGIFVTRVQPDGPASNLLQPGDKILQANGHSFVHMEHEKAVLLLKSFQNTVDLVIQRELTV

APBA3_1, O96018 = target: T3, APBA3_1, O96018
T3 sequence (O96018 389-490, limits assumed, looked up): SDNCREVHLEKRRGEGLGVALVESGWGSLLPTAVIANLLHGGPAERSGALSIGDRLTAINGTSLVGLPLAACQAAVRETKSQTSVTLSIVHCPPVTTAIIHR

MPP6, Q9NZW5 = target: T4, MPP6, Q9NZW5
T4 sequence (Q9NZW5 125-219, limits assumed, looked up): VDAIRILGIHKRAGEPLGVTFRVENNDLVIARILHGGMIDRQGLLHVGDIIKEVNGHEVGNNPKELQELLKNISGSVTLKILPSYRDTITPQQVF

FRMPD3, Q5JV73 = target: FRMPD3, Q5JV73
FRMPD3, Q5JV73, sequence (Q5JV73 12-100): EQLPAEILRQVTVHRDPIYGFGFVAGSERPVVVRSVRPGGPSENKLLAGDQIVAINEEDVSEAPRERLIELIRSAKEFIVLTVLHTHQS

LIN7B, Q9HAP6 = target: T5, LIN7B, Q9HAP6
T5 sequence (Q9HAP6 88-185, limits assumed, looked up): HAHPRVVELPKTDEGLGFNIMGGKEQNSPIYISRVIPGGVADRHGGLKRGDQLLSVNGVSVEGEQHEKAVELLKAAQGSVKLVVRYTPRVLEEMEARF

MAGI1_2, Q96QZ7 = target: MAGI1_2, Q96QZ7
MAGI1_2, Q96QZ7, sequence (Q96QZ7 456-580): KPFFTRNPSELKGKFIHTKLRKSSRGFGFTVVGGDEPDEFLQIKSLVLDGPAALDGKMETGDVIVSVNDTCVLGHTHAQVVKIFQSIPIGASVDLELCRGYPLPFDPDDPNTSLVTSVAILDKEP

Inadl_2, Q8NI35 = target: Inadl_2, Q8NI35
Inadl_2, Q8NI35, sequence (Q8NI35 238-335): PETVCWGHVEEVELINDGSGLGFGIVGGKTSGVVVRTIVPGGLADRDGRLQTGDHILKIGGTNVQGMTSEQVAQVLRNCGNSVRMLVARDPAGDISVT

NHERF4_1, Q86UT5-2 = target: NHERF4_1, Q86UT5-2
NHERF4_1, Q86UT5-2, sequence (Q86UT5 other isoform, or with tags, fused parts or gaps): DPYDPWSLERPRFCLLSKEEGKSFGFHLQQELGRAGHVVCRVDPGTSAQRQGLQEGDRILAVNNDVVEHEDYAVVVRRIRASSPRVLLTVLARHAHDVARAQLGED

DLG3_3, Q92796 = target: T6, DLG3_3, Q92796
T6 sequence (Q92796 374-475, limits assumed, looked up): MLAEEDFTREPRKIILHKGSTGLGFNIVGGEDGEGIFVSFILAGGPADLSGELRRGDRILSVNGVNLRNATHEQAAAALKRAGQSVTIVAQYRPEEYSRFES

PARD3_3, Q8TEW0 = target: PARD3_3, Q8TEW0
PARD3_3, Q8TEW0, sequence (Q8TEW0 582-685): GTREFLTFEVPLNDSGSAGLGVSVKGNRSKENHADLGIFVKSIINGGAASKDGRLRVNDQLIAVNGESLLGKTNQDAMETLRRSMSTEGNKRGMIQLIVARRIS

TJP2_1, Q9UDY2 = target: TJP2_1, Q9UDY2
TJP2_1, Q9UDY2, sequence (Q9UDY2 24-128): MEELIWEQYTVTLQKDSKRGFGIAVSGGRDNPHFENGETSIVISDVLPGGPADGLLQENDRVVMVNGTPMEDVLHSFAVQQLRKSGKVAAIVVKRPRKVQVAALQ

Inadl_6, Q8NI35 = target: Inadl_6, Q8NI35
Inadl_6, Q8NI35, sequence (Q8NI35 1058-1167): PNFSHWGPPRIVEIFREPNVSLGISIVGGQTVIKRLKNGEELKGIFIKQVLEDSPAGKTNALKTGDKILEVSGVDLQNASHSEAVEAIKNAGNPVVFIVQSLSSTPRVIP

SYNJ2BP, P57105 = target: T7, SYNJ2BP, P57105
T7 sequence (P57105 8-110, limits assumed, looked up): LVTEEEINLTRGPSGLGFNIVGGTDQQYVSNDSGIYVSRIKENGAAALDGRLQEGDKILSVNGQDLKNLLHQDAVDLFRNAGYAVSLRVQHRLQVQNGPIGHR

SNX27, Q96L92 = target: SNX27, Q96L92
DLG1_3, Q12959 = target: DLG1_3, Q12959
DLG1_3, Q12959, sequence (Q12959 457-571): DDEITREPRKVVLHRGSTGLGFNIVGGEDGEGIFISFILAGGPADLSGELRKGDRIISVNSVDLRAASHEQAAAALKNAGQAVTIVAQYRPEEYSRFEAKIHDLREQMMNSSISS

GRASP, Q7Z6J2 = target: GRASP, Q7Z6J2
GRASP, Q7Z6J2, sequence (Q7Z6J2 96-193): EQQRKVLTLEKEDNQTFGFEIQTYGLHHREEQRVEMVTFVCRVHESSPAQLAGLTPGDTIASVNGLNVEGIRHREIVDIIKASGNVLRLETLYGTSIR

RADIL, Q96JH8 = target: T8, RADIL, Q96JH8
T8 sequence (Q96JH8 971-1071, limits assumed, looked up): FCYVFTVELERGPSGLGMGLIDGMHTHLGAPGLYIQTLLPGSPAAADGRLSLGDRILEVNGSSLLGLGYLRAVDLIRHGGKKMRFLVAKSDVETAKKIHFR

AHNAK1, Q09666 = target: AHNAK1, Q09666
AHNAK1, Q09666, sequence (Q09666 4-100): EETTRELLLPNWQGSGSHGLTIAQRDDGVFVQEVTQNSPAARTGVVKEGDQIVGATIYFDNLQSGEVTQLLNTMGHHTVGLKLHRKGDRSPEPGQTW

SNTG2, Q9NY99 = target: T9, SNTG2, Q9NY99
T9 sequence (Q9NY99 68-166, limits assumed, looked up): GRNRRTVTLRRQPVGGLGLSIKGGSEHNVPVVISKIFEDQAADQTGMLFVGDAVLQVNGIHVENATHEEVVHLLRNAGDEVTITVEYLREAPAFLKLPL

IL16_4, Q14005 = target: IL16_4, Q14005
IL16_4, Q14005, sequence (Q14005 1229-1329): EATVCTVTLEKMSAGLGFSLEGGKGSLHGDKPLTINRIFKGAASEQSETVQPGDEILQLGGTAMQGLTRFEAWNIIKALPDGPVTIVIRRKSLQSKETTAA

DLG5_1, Q8TDM6 = target: DLG5_1, Q8TDM6
DLG5_1, Q8TDM6, sequence (Q8TDM6 617-713): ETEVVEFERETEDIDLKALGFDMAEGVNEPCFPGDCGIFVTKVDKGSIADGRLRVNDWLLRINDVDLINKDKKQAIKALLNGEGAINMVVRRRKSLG

DLG4_3, P78352 = target: DLG4_3, P78352
DLG4_3, P78352, sequence (P78352 306-403): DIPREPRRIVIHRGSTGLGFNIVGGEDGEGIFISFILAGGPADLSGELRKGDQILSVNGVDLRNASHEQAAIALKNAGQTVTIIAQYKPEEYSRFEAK

Inadl_9, Q8NI35 = target: Inadl_9, Q8NI35
Inadl_9, Q8NI35, sequence (Q8NI35 1530-1615): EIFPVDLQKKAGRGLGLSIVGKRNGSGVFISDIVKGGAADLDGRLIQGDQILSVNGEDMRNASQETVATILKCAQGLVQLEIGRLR

MPDZ_10, O75970 = target: T10, MPDZ_10, O75970
T10 sequence (O75970 1624-1722, limits assumed, looked up): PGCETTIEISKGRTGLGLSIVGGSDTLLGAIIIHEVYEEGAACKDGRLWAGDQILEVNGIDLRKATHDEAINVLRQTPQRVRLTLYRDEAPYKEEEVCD

NHERF2_2, Q15599 = target: NHERF2_2, Q15599
NHERF2_2, Q15599, sequence (Q15599 142-238): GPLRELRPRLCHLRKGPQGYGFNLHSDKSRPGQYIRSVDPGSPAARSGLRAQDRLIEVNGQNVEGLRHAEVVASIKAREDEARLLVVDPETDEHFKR

NOS1, P29475 = target: NOS1, P29475
NOS1, P29475, sequence (P29475 9-101): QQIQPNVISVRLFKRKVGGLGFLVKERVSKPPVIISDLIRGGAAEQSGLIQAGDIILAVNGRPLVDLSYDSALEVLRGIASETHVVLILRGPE

MAST1, Q9Y2H9 = target: MAST1, Q9Y2H9
MAST1, Q9Y2H9, sequence (Q9Y2H9 962-1065): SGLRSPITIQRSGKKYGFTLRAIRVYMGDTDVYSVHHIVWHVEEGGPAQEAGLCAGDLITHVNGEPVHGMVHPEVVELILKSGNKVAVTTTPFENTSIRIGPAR

Q: Which pKd (PARD3B_1, Q8TEW8) does the source give for TISFTQTSQF [SLC1A1, P43005] here?
A: 4.24

Q: And the pKd (LRRC7, Q96NW7)?
A: below the threshold

Q: What about the pKd (APBA3_1, O96018) of the same binder?
A: below the threshold

Q: And the pKd (MPP6, Q9NZW5)?
A: below the threshold

Q: What about the pKd (FRMPD3, Q5JV73) of the same binder?
A: below the threshold

Q: And the pKd (LIN7B, Q9HAP6)?
A: below the threshold

Q: What about the pKd (MAGI1_2, Q96QZ7) of the same binder?
A: below the threshold

Q: And the pKd (Inadl_2, Q8NI35)?
A: below the threshold

Q: And the pKd (NHERF4_1, Q86UT5-2)?
A: 3.99

Q: And the pKd (DLG3_3, Q92796)?
A: below the threshold

Q: What about the pKd (PARD3_3, Q8TEW0) of the same binder?
A: below the threshold

Q: What about the pKd (TJP2_1, Q9UDY2) of the same binder?
A: below the threshold

Q: And the pKd (Inadl_6, Q8NI35)?
A: below the threshold

Q: And the pKd (SYNJ2BP, P57105)?
A: below the threshold

Q: And the pKd (SNX27, Q96L92)?
A: 5.06

Q: What about the pKd (DLG1_3, Q12959) of the same binder?
A: below the threshold

Q: And the pKd (GRASP, Q7Z6J2)?
A: 5.31

Q: What about the pKd (RADIL, Q96JH8) of the same binder?
A: below the threshold

Q: What about the pKd (AHNAK1, Q09666) of the same binder?
A: below the threshold

Q: What about the pKd (SNTG2, Q9NY99) of the same binder?
A: below the threshold

Q: What about the pKd (IL16_4, Q14005) of the same binder?
A: below the threshold

Q: What about the pKd (DLG5_1, Q8TDM6) of the same binder?
A: below the threshold

Q: And the pKd (DLG4_3, P78352)?
A: below the threshold

Q: And the pKd (Inadl_9, Q8NI35)?
A: below the threshold

Q: And the pKd (MPDZ_10, O75970)?
A: below the threshold

Q: What about the pKd (NHERF2_2, Q15599) of the same binder?
A: 4.42

Q: And the pKd (NOS1, P29475)?
A: 3.53

Q: What about the pKd (MAST1, Q9Y2H9) of the same binder?
A: below the threshold

Q: With EIPAQSPTCV [FZD10, Q9ULW2] as the binder, how does the pKd (PARD3B_1, Q8TEW8) read?
A: below the threshold

Q: What about the pKd (LRRC7, Q96NW7) of the same binder?
A: below the threshold

Q: What about the pKd (APBA3_1, O96018) of the same binder?
A: 3.57

Q: And the pKd (MPP6, Q9NZW5)?
A: below the threshold

Q: What about the pKd (FRMPD3, Q5JV73) of the same binder?
A: 3.49

Q: And the pKd (LIN7B, Q9HAP6)?
A: below the threshold

Q: What about the pKd (MAGI1_2, Q96QZ7) of the same binder?
A: 3.88

Q: What about the pKd (Inadl_2, Q8NI35) of the same binder?
A: 3.58

Q: What about the pKd (NHERF4_1, Q86UT5-2) of the same binder?
A: 3.91

Q: And the pKd (DLG3_3, Q92796)?
A: 3.81

Q: And the pKd (PARD3_3, Q8TEW0)?
A: 3.65

Q: And the pKd (TJP2_1, Q9UDY2)?
A: 3.82

Q: And the pKd (Inadl_6, Q8NI35)?
A: 3.7

Q: What about the pKd (SYNJ2BP, P57105) of the same binder?
A: 4.36

Q: And the pKd (SNX27, Q96L92)?
A: 4.08

Q: What about the pKd (DLG1_3, Q12959) of the same binder?
A: 4

Q: What about the pKd (GRASP, Q7Z6J2) of the same binder?
A: 4.22

Q: What about the pKd (RADIL, Q96JH8) of the same binder?
A: 4.47

Q: What about the pKd (AHNAK1, Q09666) of the same binder?
A: 3.57

Q: And the pKd (SNTG2, Q9NY99)?
A: 3.85

Q: What about the pKd (IL16_4, Q14005) of the same binder?
A: below the threshold

Q: What about the pKd (DLG5_1, Q8TDM6) of the same binder?
A: 3.71

Q: And the pKd (DLG4_3, P78352)?
A: below the threshold

Q: What about the pKd (Inadl_9, Q8NI35) of the same binder?
A: 4.6

Q: What about the pKd (MPDZ_10, O75970) of the same binder?
A: 3.89

Q: What about the pKd (NHERF2_2, Q15599) of the same binder?
A: 3.81

Q: And the pKd (NOS1, P29475)?
A: 4.17

Q: What about the pKd (MAST1, Q9Y2H9) of the same binder?
A: below the threshold

Q: Which results are given for DPAESMESLV [PTPRG, P23470]?
A: pKd (PARD3B_1, Q8TEW8): below the threshold; pKd (LRRC7, Q96NW7): below the threshold; pKd (APBA3_1, O96018): below the threshold; pKd (MPP6, Q9NZW5): below the threshold; pKd (FRMPD3, Q5JV73): below the threshold; pKd (LIN7B, Q9HAP6): below the threshold; pKd (MAGI1_2, Q96QZ7): 3.55; pKd (Inadl_2, Q8NI35): 3.5; pKd (NHERF4_1, Q86UT5-2): below the threshold; pKd (DLG3_3, Q92796): below the threshold; pKd (PARD3_3, Q8TEW0): 3.93; pKd (TJP2_1, Q9UDY2): below the threshold; pKd (Inadl_6, Q8NI35): 3.88; pKd (SYNJ2BP, P57105): 4.74; pKd (SNX27, Q96L92): 5.42; pKd (DLG1_3, Q12959): below the threshold; pKd (GRASP, Q7Z6J2): 3.62; pKd (RADIL, Q96JH8): 4.23; pKd (AHNAK1, Q09666): below the threshold; pKd (SNTG2, Q9NY99): 4.24; pKd (IL16_4, Q14005): below the threshold; pKd (DLG5_1, Q8TDM6): below the threshold; pKd (DLG4_3, P78352): below the threshold; pKd (Inadl_9, Q8NI35): 3.73; pKd (MPDZ_10, O75970): below the threshold; pKd (NHERF2_2, Q15599): below the threshold; pKd (NOS1, P29475): 3.74; pKd (MAST1, Q9Y2H9): 4.31

Q: Which pKd (PARD3B_1, Q8TEW8) does the source give for DFLSTFHIRI [CIB2, O75838] here?
A: 4.68

Q: What about the pKd (LRRC7, Q96NW7) of the same binder?
A: below the threshold

Q: What about the pKd (APBA3_1, O96018) of the same binder?
A: below the threshold

Q: And the pKd (MPP6, Q9NZW5)?
A: below the threshold

Q: And the pKd (FRMPD3, Q5JV73)?
A: below the threshold

Q: And the pKd (LIN7B, Q9HAP6)?
A: 3.67

Q: And the pKd (MAGI1_2, Q96QZ7)?
A: below the threshold

Q: What about the pKd (Inadl_2, Q8NI35) of the same binder?
A: below the threshold

Q: And the pKd (NHERF4_1, Q86UT5-2)?
A: below the threshold

Q: And the pKd (DLG3_3, Q92796)?
A: below the threshold

Q: And the pKd (PARD3_3, Q8TEW0)?
A: 4.28

Q: What about the pKd (TJP2_1, Q9UDY2) of the same binder?
A: below the threshold

Q: And the pKd (Inadl_6, Q8NI35)?
A: below the threshold

Q: And the pKd (SYNJ2BP, P57105)?
A: below the threshold

Q: And the pKd (SNX27, Q96L92)?
A: below the threshold

Q: What about the pKd (DLG1_3, Q12959) of the same binder?
A: below the threshold

Q: And the pKd (GRASP, Q7Z6J2)?
A: 3.47

Q: And the pKd (RADIL, Q96JH8)?
A: 4.19

Q: What about the pKd (AHNAK1, Q09666) of the same binder?
A: below the threshold

Q: What about the pKd (SNTG2, Q9NY99) of the same binder?
A: 3.62

Q: What about the pKd (IL16_4, Q14005) of the same binder?
A: below the threshold

Q: What about the pKd (DLG5_1, Q8TDM6) of the same binder?
A: below the threshold

Q: What about the pKd (DLG4_3, P78352) of the same binder?
A: 3.5

Q: What about the pKd (Inadl_9, Q8NI35) of the same binder?
A: 3.66

Q: What about the pKd (MPDZ_10, O75970) of the same binder?
A: below the threshold

Q: What about the pKd (NHERF2_2, Q15599) of the same binder?
A: below the threshold

Q: What about the pKd (NOS1, P29475) of the same binder?
A: below the threshold

Q: And the pKd (MAST1, Q9Y2H9)?
A: below the threshold
